Reference: patent publication US20160129078A1, “Rhomboid Proteins and Uses Thereof” (Queen's University at Kingston, priority 2014, published 2016)

Test system: MDA-MB-468 breast cancer cells
Test: MTT viability assay, sensitization to lapatinib
Format: cell-based, human
Details: co-treatment with lapatinib; most prominent at 10 or 15 uM after 48 and 72 hours; 5 or 10 ug protein
Excerpt: Experiments were thus conducted to assess the ability of At1g74130 proteins or variants to enhance the sensitivity of two breast cancer cell lines to the chemotherapeutic drug lapatinib. The breast cancer cell lines selected for these assays were MDA-MB-231 and MDA-MB-468, two cell lines used frequently in cancer research. Any impact on the cells' ability to pump or transport drugs (in and out) may alter the efficacy a chemotherapeutic drug, e.g., by enhancing levels of cell death) or by increasing effectiveness at lower dosage levels. The design of the breast cancer cell assays was similar to that used for bacteria in the above examples, results, and figures. In these studies, the widely used MTT (methyl thiazolyl diphenyl-tetrazolium bromide) viability assay procedure was used to assess any impact exerted by At1g74130 variant S (see, for example, the MTT procedure described by Nagaria, T. S., et al., Flavopiridol synergizes with sorafenib to induce cytotoxicity and potentiate antitumorigenic activity in EGFR/HER-2 and mutant RAS/RAF breast cancer model systems, Neoplasia, 15:939-951, 2013).
Cells were cultured at 37° C. in 96-well plates (10,000 cells in 100 ul media per well) for 24-48 hours to near confluency. […] The assays were then read at 570 nm using a microplate scanning spectrophotometer. […]

B1: At1g74130 S: 6/7 S-form splice variant of Arabidopsis At1g74130 rhomboid protein (protein, listed as Arabidopsis thaliana)
chain: MHAIFCRRVAVGCSSPQLTKLVTKQASQSRHSLSHLLPFDLSSRFVPPYVVSRSARVHGFFAGKLGNTNLKLKFGNVMESRAGFFSSELPSHGFESGGFTGFQKRGWKSWINGANGVVFGLVIANAAVFTMWRVLGKDNMWMVKNFMLSRYSFMTGRIHTLITSGFSHVGATHIILNMMGLCYFGARIARSFGPRYLLKLYFAGALGGSVFFLSSHALSVISLKGQRVVPKDQLKVPIGKLGANGPVYAITLLDMLLYPKVTTYFGLMLRVPVFAVRESIA
- increase in level of cell death: 20 to 40%
